Reference: patent US20110008345A1 (GlaxoSmithKline, published 2011)
Where two headings read alike, the source gives them in different places. One block for each binder: values may come before it.

Key:
[1] = target: T1, Recombinant Human HGF R (c-MET)/Fc Chimera (human, UniProt P08581 25-932); test: ELISA
T1 construct: bought; also called HGF receptor

recombinant human VEGF = target: T2, recombinant human VEGF (human, UniProt P15692-4 27-191); test: ELISA
T2 construct: also called VEGF165; hVEGF165

recombinant human HER2 = target: T3, recombinant human HER2 (human, UniProt P04626 23-652, limits assumed); test: ELISA
T3 construct: bought

VEGF R2 (VEGF receptor) = target: T4, VEGF R2 (VEGF receptor) (human, UniProt P35968 20-764); test: ELISA
T4 construct: bought; construct not described

[2] = target: T5, recombinant E. coli-expressed cynomolgus IL-13 (cynomolgus, UniProt Q0PW92 21-132); test: SPR
T5 construct: also called cyno IL-13

[3] = target: T6, recombinant E. coli-expressed cynomolgus IL-4 (cynomolgus, UniProt P79339 25-153); test: SPR
T6 construct: also called cyno IL-4
T6 sequence (looked up): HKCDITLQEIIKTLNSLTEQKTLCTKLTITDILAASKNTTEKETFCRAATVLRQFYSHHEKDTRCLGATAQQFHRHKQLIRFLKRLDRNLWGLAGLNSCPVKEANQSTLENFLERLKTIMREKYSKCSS

[4] = target: T7, recombinant E. coli-expressed human IL-13 (human, UniProt P35225 35-146); test: SPR exp 1
T7 construct: made and purified at GSK; also called Interleukin-13; rhIL-13

[5] = target: T7, recombinant E. coli-expressed human …; test: SPR exp 2
[6] = target: T8, recombinant E. coli-expressed human IL-4 (human, UniProt P05112 25-153); test: SPR exp 2
T8 construct: made and purified at GSK; also called Interleukin-4; rhIL-4
T8 sequence: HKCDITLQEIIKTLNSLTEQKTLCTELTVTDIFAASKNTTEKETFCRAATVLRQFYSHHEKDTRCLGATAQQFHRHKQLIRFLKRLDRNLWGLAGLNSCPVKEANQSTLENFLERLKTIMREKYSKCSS

[7] = target: T7, recombinant E. coli-expressed human …; test: cell-based or functional assay
[8] = target: T8, recombinant E. coli-expressed human IL-4; test: cell-based or functional assay
[9] = target: T5, recombinant E. coli-expressed …; test: cell-based or functional assay
[10] = target: T6, recombinant E. coli-expressed …; test: cell-based or functional assay
[11] = target: T7, recombinant E. coli-expressed human …; test: ELISA, IL-13 binding to IL13Ralpha2/Fc
[12] = target: T7, recombinant E. coli-expressed human …; test: ELISA, supernatant
[13] = target: T8, recombinant E. coli-expressed human IL-4; test: ELISA, supernatant
[14] = target: T7, recombinant E. coli-expressed human …; test: SPR
[15] = target: T7, recombinant E. coli-expressed human …; test: SPR, no IL-4 bound
[16] = target: T7, recombinant E. coli-expressed human …; test: cell-based or functional assay; remark: listed apart in the source
[17] = target: T8, recombinant E. coli-expressed human IL-4; test: cell-based or functional assay; remark: listed apart in the source
[18] = target: T7, recombinant E. coli-expressed human …; test: SPR, human IL-4 bound first
[19] = target: T8, recombinant E. coli-expressed human IL-4; test: ELISA, IL-4 binding to IL4Ralpha-Fc
[20] = target: T5, recombinant E. coli-expressed …; test: SPR; remark: listed apart in the source
[21] = target: T7, recombinant E. coli-expressed human …; test: SPR exp 1; remark: listed apart in the source
[22] = target: T8, recombinant E. coli-expressed human IL-4; test: SPR exp 1
[23] = target: T7, recombinant E. coli-expressed human …; test: SPR exp 2; remark: listed apart in the source
[24] = target: T7, recombinant E. coli-expressed human …; test: cell-based or functional assay; remark: listed apart in the source
[25] = target: T5, recombinant E. coli-expressed …; test: cell-based or functional assay; remark: listed apart in the source

T1 sequence (P08581 25-932 limits assumed, change not shown): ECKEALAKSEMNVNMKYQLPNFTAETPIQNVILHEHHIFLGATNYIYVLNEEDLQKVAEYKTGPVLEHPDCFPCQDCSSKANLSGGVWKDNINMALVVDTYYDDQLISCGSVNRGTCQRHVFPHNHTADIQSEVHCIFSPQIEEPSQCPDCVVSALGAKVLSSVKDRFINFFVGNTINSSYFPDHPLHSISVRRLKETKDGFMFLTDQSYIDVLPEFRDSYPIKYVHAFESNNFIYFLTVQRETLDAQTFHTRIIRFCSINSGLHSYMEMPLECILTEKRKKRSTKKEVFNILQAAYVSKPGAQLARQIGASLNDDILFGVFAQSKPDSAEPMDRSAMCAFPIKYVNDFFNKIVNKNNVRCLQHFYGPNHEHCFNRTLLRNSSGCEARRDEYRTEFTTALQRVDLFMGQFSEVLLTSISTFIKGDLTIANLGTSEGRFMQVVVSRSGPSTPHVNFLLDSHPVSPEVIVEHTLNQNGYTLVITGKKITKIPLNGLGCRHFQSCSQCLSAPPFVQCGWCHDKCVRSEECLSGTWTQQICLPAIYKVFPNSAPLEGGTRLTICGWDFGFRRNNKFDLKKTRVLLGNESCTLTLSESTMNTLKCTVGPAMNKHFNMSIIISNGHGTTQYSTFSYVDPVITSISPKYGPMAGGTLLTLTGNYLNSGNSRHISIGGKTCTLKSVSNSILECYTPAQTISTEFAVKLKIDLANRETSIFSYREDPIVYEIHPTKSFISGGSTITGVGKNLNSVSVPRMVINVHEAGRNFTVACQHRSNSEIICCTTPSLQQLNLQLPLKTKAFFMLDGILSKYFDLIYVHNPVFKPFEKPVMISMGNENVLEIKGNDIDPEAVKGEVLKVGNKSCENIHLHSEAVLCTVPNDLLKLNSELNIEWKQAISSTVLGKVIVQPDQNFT
T4 sequence (P35968 20-764 limits assumed): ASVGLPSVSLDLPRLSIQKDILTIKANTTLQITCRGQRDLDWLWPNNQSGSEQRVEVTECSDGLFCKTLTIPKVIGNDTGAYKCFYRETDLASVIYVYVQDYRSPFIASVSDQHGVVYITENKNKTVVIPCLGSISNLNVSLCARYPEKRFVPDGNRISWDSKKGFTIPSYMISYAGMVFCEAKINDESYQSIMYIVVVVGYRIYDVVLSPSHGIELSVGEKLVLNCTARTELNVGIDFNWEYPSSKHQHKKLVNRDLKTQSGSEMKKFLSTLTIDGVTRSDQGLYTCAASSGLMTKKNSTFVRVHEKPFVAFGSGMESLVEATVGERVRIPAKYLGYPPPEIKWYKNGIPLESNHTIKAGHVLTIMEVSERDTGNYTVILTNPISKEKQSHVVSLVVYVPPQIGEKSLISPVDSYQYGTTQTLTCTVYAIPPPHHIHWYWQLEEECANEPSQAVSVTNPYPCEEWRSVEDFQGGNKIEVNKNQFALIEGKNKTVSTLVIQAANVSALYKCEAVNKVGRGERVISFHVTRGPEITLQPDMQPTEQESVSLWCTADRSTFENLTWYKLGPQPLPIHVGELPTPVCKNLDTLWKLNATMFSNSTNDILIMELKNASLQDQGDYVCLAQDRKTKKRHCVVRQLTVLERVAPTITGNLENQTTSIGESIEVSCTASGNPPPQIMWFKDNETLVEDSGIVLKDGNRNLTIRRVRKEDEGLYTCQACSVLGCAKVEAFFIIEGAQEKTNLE

binding result [1]: binds
binding result (recombinant human VEGF): no binding
B1: BPC1020 (antibody, V domains shown)
VH: EVQLVESGGGLVQPGGSLRLSCAASGYTFTSYWLHWVRQAPGKGLEWVGMIDPSNSDTRFNPNFKDRFTISADTSKNTAYLQMNSLRAEDTAVYYCATYRSYVTPLDYWGQGTLVTVSS
VL: DIQMTQSPSSLSASVGDRVTITCKSSQSLLYTSSQKNYLAWYQQKPGKAPKLLIYWASTRESGVPSRFSGSGSGTDFTLTISSLQPEDFATYYCQQYYAYPWTFGQGTKVEIKR

binding result (recombinant human HER2): no binding
binding result (recombinant human VEGF): no binding
binding result (VEGF R2 (VEGF receptor)): no binding
B2: anti-IGF-1R antibody H0L0 (antibody, human IgG1, kappa, V domains shown)
VH: QVQLVQSGAEVKKPGASVKVSCKASGYTFTDYYMNWVRQAPGQGLEWMGNINPNNGGTNYNQKFKDRVTMTTDTSTSTAYMELRSLRSDDTAVYYCARWILYYGRSKWYFDVWGRGTLVTVSS
VL: DIVMTQSPLSLPVTPGEPASISCRSSQSIVQSNGDTYLEWYLQKPGQSPQLLIYRVSNRFSGVPDRFSGSGSGTDFTLKISRVEAEDVGVYYCFQGSHVPYTFGQGTKLEIKR
notes: also called HOLO

Kd [2]: 26.7 nM
koff [2]: 0.0129 s⁻¹
kon [2]: 483000 M⁻¹ s⁻¹
Kd [3]: 0.029 nM
koff [3]: 5.3e-05 s⁻¹
kon [3]: 1.83e+06 M⁻¹ s⁻¹
Kd [4]: 0.268 nM
Kd [5]: 0.305 nM
Kd [6]: 0.011 nM
Mean ND50 (TF-1) [7]: 2.11 nM
Mean ND50 (TF-1) [8]: 3.02 nM
Mean ND50 (TF-1) [9]: 47.9 nM
Mean ND50 (TF-1) [10]: 1.36 nM
IC50 [11]: 7.41 nM
B3: PascoH-TVAAPS-474 GS removed (bispecific antibody, human IgG1, kappa)
heavy: not shown
light: DIVLTQSPSSLSASVGDRVTITCKASQSVDYDGDSYMNWYQQKPGKAPKLLIYAASNLESGIPSRFSGSGSGTDFTFTISSLQPEDIATYYCQQSNEDPPTFGQGTKVEIKRTVAAPSVFIFPPSDEQLKSGTASVVCLLNNFYPREAKVQWKVDNALQSGNSQESVTEQDSKDSTYSLSSTLTLSKADYEKHKVYACEVTHQGLSSPVTKSFNRGEC

binding result [12]: binds
binding result [13]: binds
B4: BPC1618 (bispecific antibody, human IgG4, kappa)
heavy: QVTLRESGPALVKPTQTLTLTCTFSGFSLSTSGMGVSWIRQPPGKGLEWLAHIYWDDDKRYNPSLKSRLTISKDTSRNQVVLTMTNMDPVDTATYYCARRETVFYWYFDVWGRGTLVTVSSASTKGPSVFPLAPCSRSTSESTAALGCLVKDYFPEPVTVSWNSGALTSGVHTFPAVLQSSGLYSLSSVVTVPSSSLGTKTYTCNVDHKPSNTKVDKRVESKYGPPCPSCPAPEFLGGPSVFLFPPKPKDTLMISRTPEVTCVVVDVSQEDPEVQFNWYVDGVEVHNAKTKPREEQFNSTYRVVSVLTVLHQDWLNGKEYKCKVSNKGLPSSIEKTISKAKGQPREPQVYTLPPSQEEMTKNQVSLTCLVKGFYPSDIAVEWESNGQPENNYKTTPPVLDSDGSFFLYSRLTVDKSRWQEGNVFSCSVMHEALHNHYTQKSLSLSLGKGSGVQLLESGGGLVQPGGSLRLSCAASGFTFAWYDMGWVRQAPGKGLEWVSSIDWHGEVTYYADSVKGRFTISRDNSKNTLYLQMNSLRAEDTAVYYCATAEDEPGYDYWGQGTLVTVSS
light: DIVLTQSPSSLSASVGDRVTITCKASQSVDYDGDSYMNWYQQKPGKAPKLLIYAASNLESGIPSRFSGSGSGTDFTFTISSLQPEDIATYYCQQSNEDPPTFGQGTKVEIKRTVAAPSVFIFPPSDEQLKSGTASVVCLLNNFYPREAKVQWKVDNALQSGNSQESVTEQDSKDSTYSLSSTLTLSKADYEKHKVYACEVTHQGLSSPVTKSFNRGEC

Kd [14]: 0.423 nM
koff [14]: 0.000266 s⁻¹
kon [14]: 629000 M⁻¹ s⁻¹
Kd [2]: 16.6 nM
koff [2]: 0.011 s⁻¹
kon [2]: 662000 M⁻¹ s⁻¹
Kd [3]: 0.0342 nM
koff [3]: 6.38e-05 s⁻¹
kon [3]: 1.87e+06 M⁻¹ s⁻¹
Kd [4]: 0.331 nM
Kd [5]: 0.351 nM
Kd [6]: 0.005 nM
Kd [15]: 0.425 nM
koff [15]: 0.000259 s⁻¹
kon [15]: 609000 M⁻¹ s⁻¹
Mean ND50 (TF-1) [7]: 2.27 nM
Mean ND50 (TF-1) [8]: 2.85 nM
Mean ND50 (TF-1) [9]: 39.8 nM
Mean ND50 (TF-1) [10]: 1.89 nM
Mean IC50 (whole blood phospho-STAT6) [16]: 2.78 nM
Mean IC50 (whole blood phospho-STAT6) [17]: 7.95 nM
Kd [18]: 0.408 nM
koff [18]: 0.000231 s⁻¹
kon [18]: 566000 M⁻¹ s⁻¹
IC50 [19]: 5.14 nM
IC50 [11]: 9.58 nM
B5: PascoH-474 GS removed (bispecific antibody, human IgG1, kappa)
heavy: not shown
light: DIVLTQSPSSLSASVGDRVTITCKASQSVDYDGDSYMNWYQQKPGKAPKLLIYAASNLESGIPSRFSGSGSGTDFTFTISSLQPEDIATYYCQQSNEDPPTFGQGTKVEIKRTVAAPSVFIFPPSDEQLKSGTASVVCLLNNFYPREAKVQWKVDNALQSGNSQESVTEQDSKDSTYSLSSTLTLSKADYEKHKVYACEVTHQGLSSPVTKSFNRGEC

binding result [12]: binds
binding result [13]: binds
B6: BPC1617 (bispecific antibody, human IgG2, kappa)
heavy: QVTLRESGPALVKPTQTLTLTCTFSGFSLSTSGMGVSWIRQPPGKGLEWLAHIYWDDDKRYNPSLKSRLTISKDTSRNQVVLTMTNMDPVDTATYYCARRETVFYWYFDVWGRGTLVTVSSASTKGPSVFPLAPCSRSTSESTAALGCLVKDYFPEPVTVSWNSGALTSGVHTFPAVLQSSGLYSLSSVVTVPSSNFGTQTYTCNVDHKPSNTKVDKTVERKCCVECPPCPAPPVAGPSVFLFPPKPKDTLMISRTPEVTCVVVDVSHEDPEVQFNWYVDGVEVHNAKTKPREEQFNSTFRVVSVLTVVHQDWLNGKEYKCKVSNKGLPAPIEKTISKTKGQPREPQVYTLPPSREEMTKNQVSLTCLVKGFYPSDIAVEWESNGQPENNYKTTPPMLDSDGSFFLYSKLTVDKSRWQQGNVFSCSVMHEALHNHYTQKSLSLSPGKGSGVQLLESGGGLVQPGGSLRLSCAASGFTFAWYDMGWVRQAPGKGLEWVSSIDWHGEVTYYADSVKGRFTISRDNSKNTLYLQMNSLRAEDTAVYYCATAEDEPGYDYWGQGTLVTVSS
light: DIVLTQSPSSLSASVGDRVTITCKASQSVDYDGDSYMNWYQQKPGKAPKLLIYAASNLESGIPSRFSGSGSGTDFTFTISSLQPEDIATYYCQQSNEDPPTFGQGTKVEIKRTVAAPSVFIFPPSDEQLKSGTASVVCLLNNFYPREAKVQWKVDNALQSGNSQESVTEQDSKDSTYSLSSTLTLSKADYEKHKVYACEVTHQGLSSPVTKSFNRGEC

binding result [12]: binds
binding result [13]: binds
B7: BPC1619 (bispecific antibody, human IgG4 S228P, kappa)
heavy: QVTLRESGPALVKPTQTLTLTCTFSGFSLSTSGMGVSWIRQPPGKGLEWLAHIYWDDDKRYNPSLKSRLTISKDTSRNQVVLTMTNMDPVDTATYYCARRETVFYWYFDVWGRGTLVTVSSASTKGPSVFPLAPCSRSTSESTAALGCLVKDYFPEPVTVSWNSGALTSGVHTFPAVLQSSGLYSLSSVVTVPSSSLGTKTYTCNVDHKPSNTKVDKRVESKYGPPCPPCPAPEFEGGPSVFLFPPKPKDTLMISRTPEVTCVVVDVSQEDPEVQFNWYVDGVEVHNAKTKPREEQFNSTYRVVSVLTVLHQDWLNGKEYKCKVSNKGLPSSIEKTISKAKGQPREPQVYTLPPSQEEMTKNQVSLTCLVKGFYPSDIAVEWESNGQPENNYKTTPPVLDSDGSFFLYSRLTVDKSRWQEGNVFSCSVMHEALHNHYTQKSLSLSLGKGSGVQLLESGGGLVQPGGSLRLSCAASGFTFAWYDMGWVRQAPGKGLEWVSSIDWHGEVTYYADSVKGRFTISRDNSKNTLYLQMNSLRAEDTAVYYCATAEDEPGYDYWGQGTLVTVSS
light: DIVLTQSPSSLSASVGDRVTITCKASQSVDYDGDSYMNWYQQKPGKAPKLLIYAASNLESGIPSRFSGSGSGTDFTFTISSLQPEDIATYYCQQSNEDPPTFGQGTKVEIKRTVAAPSVFIFPPSDEQLKSGTASVVCLLNNFYPREAKVQWKVDNALQSGNSQESVTEQDSKDSTYSLSSTLTLSKADYEKHKVYACEVTHQGLSSPVTKSFNRGEC

Kd [20]: 5.4 nM
koff [20]: 0.00184 s⁻¹
kon [20]: 341000 M⁻¹ s⁻¹
Kd [21]: 0.114 nM
Kd [22]: 0.00172 nM
Kd [23]: 0.15 nM
Mean ND50 (TF-1) [24]: 0.796 nM
Mean ND50 (TF-1) [25]: 9.23 nM
IC50 [11]: 6.41 nM
B8: PascoH-616 (bispecific antibody, human IgG1, kappa)
heavy: not shown
light: DIVLTQSPSSLSASVGDRVTITCKASQSVDYDGDSYMNWYQQKPGKAPKLLIYAASNLESGIPSRFSGSGSGTDFTFTISSLQPEDIATYYCQQSNEDPPTFGQGTKVEIKRTVAAPSVFIFPPSDEQLKSGTASVVCLLNNFYPREAKVQWKVDNALQSGNSQESVTEQDSKDSTYSLSSTLTLSKADYEKHKVYACEVTHQGLSSPVTKSFNRGEC

binding result [1]: binds
binding result (recombinant human VEGF): no binding
B9: BPC1019 (antibody, human IgG1, kappa)
heavy: not shown
chain: not shown
light: DIQMTQSPSSLSASVGDRVTITCKSSQSLLYTSSQKNYLAWYQQKPGKAPKLLIYWASTRESGVPSRFSGSGSGTDFTLTISSLQPEDFATYYCQQYYAYPWTFGQGTKVEIKRTVAAPSVFIFPPSDEQLKSGTASVVCLLNNFYPREAKVQWKVDNALQSGNSQESVTEQDSKDSTYSLSSTLTLSKADYEKHKVYACEVTHQGLSSPVTKSFNRGEC
notes: monovalent antibody; also called anti cMET 5D5v2 knob-into-hole
